# Article PMC4266597, “Ultrastable cellulosome-adhesion complex tightens under load” (Nature Communications, 2014)
# T1: T129C Xyn-XMod-Doc protein (R. flavefaciens XMod-Doc from the CttA scaffoldin fused to the XynT6 xylanase … (Ruminococcus flavefaciens strain FD1, UniProt A0AEF5 565-803, engineered cysteine (T129C in the xylanase) coupled to a 5 kDa NHS-PEG-Mal linker on the cover glass or cantilever))
# T1 construct: X-module and dockerin (XMod-Doc) of the CttA scaffoldin of Ruminococcus flavefaciens strain FD1; The Xyn domain is a marker (fingerprint) and immobilisation domain and is written as a carrier under tags; Addgene 60865 holds the plasmid; also called XynT6-XDoc T129C; Xylanase-Xmodule-Dockerin; source: E. coli BL21, purified (Ni-NTA); not shown: XynT6 xylanase from Geobacillus stearothermophilus …
# T1 sequence: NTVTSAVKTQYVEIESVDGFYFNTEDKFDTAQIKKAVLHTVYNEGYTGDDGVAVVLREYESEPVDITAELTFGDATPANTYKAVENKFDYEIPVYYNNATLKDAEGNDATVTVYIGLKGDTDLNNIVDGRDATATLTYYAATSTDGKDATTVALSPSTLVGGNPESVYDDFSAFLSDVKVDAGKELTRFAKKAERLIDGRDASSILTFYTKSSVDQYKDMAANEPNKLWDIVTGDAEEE
# Assays:
# [1] = target: T1, T129C Xyn-XMod-Doc protein (R. …); test: AFM single-molecule force spectroscopy; as a1, but final Doc:Coh rupture immediately following XMod unfolding (35–40% of traces); Bell-Evans fit; details: both partners purified
# [2] = target: T1, T129C Xyn-XMod-Doc protein (R. …); test: AFM single-molecule force spectroscopy; both partners covalently immobilised through PEG linkers; configuration I: Coh-CBM on the cantilever, Xyn-XMod-Doc on the cover glass (configuration II the reverse); Ca-TBS (25 mM TRIS, 72 mM NaCl, 1 mM CaCl2, pH 7.2); pulling speeds 0.2 to 6.4 um/s; final complex rupture with intact XMod; Bell-Evans fit; details: both partners purified
binder,measurement,setting,value
"Coh-CBM C2A, C63S fusion protein (R. flavefaciens CohE from ScaE fused to cellulose-binding module 3a (CBM3a) from C. thermocellum), with ybbR tag (domain or fragment, Ruminococcus flavefaciens strain FD1, ybbR tag covalently linked to Coenzyme A on PEG by Sfp phosphopantetheinyl transferase, cohesin CohE of the ScaE scaffoldin of Ruminococcus flavefaciens strain FD1; The CBM is a marker (fingerprint) and immobilisation domain and is written as a carrier under tags; C2A reverts the earlier A2C in the CBM; also called CohE-CBM C2A C63S; Coh-CBM-ybbR; source: E. coli BL21(DE3) RIPL, purified (Ni-NTA); not shown: CBM3a from C. thermocellum with C2A and C63S, C-terminal, kept) ALTDRGMTYDLDPKDGSSAATKPVLEVTKKVFDTAADAAGQTVTVEFKVSGAEGKYATTGYHIYWDERLEVVATKTGAYAKKGAALEDSSLAKAENNGNGVFVASGADDDFGADGVMWTVELKVPADAKAGDVYPIDVAYQWDPSKGDLFTDNKDSAQGKLMQAYFFTQGIKSSSNPSTDEYLVKANATYADGYIAIKAGEP",koff of the rupture following XMod unfolding,[1],0.00047 s⁻¹
same,rupture force following XMod unfolding,[1],~300 pN
same,koff,[2],7.3e-07 s⁻¹
